This note sets out measurements from PMC8417825, “Light-Induced Dynamic Change of Phytochrome B and Cryptochrome 1 Stabilizes SINATs in Arabidopsis” (Frontiers in Plant Science, 2021).

To fix the notation:
B1: SINAT2-His (natural protein, Arabidopsis thaliana, UniProt Q9M2P4 1-308, looked up)
chain: MAPGGSALKEVMESNSTGMDYEVKTAKVEVNNNKPTKPGSAGIGKYGIHSNNGVYELLECPVCTNLMYPPIHQCPNGHTLCSNCKLRVQNTCPTCRYELGNIRCLALEKVAESLEVPCRYQNLGCHDIFPYYSKLKHEQHCRFRPYTCPYAGSECSVTGDIPTLVVHLKDDHKVDMHDGCTFNHRYVKSNPHEVENATWMLTVFNCFGRQFCLHFEAFQLGMAPVYMAFLRFMGDENEAKKFSYSLEVGAHGRKLTWQGIPRSIRDSHRKVRDSQDGLIIPRNLALYFSGGDRQELKLRVTGRIWKEE
notes: SINAT2 (SINA of Arabidopsis thaliana 2), At3g58040; Printed both as SINAT2-His (pull-down) and His-SINAT2 (ubiquitination assay); also called His-SINAT2

What all share (experiment): pull-down; in vitro pull-down: about 5 ug GST-tagged protein on glutathione resin, about 2 ug His-tagged protein added, 1 h at 4°C; washed with 1x PBS, 0.1% Triton X-100; anti-His blot
Holding throughout (conditions): both partners purified

One assay addresses T1, phyB-N-GST (Arabidopsis thaliana, UniProt P14713 1-645).
T1 construct: phytochrome B (phyB), Arabidopsis thaliana, N-terminus, amino acids 1-645; also called N-terminus of phytochrome B; source: E. coli, purified (glutathione resin)
T1 sequence (looked up): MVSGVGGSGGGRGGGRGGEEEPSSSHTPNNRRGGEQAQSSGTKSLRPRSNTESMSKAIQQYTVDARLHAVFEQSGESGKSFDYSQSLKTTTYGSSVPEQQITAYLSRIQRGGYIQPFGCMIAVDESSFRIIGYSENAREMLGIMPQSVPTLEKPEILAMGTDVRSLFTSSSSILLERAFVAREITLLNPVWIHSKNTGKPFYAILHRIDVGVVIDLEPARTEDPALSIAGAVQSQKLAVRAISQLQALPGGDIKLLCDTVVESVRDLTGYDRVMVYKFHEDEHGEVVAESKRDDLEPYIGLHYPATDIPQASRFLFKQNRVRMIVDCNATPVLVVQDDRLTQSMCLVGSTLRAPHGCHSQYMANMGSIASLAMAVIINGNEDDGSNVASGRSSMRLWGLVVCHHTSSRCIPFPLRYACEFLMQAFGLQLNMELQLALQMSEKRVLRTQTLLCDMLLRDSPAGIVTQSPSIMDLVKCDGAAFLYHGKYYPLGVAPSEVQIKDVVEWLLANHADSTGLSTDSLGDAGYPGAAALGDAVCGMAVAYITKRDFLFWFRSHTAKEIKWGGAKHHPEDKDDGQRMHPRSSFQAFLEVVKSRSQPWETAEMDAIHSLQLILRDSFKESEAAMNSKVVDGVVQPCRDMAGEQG

The target in the next assay is T2, phyB-C-GST (Arabidopsis thaliana, UniProt P14713 646-1172).
T2 construct: phytochrome B (phyB), Arabidopsis thaliana, C-terminus, amino acids 646-1,172; Cloned into pGEX-4T-1; also called C-terminus of phytochrome B; source: E. coli BL21 (DE3) pLysS, purified (glutathione resin)
T2 sequence (looked up): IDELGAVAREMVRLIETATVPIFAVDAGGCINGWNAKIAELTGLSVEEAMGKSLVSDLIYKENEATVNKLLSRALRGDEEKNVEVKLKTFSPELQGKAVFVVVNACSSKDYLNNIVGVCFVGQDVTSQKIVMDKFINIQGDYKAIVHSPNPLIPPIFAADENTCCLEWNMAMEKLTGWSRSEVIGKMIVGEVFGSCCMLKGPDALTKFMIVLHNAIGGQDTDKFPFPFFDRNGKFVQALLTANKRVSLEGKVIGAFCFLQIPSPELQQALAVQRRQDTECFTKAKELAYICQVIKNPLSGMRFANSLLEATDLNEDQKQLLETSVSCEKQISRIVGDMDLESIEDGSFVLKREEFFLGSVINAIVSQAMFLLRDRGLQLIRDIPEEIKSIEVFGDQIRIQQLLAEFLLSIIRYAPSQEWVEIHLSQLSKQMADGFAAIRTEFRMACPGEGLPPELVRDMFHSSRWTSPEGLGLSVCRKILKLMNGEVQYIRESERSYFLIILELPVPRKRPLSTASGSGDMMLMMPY

Another assay concerns the target T3, CRY1-N-GST (Arabidopsis thaliana, UniProt Q43125 1-490).
T3 construct: cryptochrome 1 (CRY1), Arabidopsis thaliana, N-terminus, amino acids 1-490; Cloned into pGEX-4T-1; also called N-terminus of cryptochrome 1; source: E. coli BL21 (DE3) pLysS, purified (glutathione resin)

The assay “SINAT2-His” has as its target B1.

T3 sequence (Q43125 1-490): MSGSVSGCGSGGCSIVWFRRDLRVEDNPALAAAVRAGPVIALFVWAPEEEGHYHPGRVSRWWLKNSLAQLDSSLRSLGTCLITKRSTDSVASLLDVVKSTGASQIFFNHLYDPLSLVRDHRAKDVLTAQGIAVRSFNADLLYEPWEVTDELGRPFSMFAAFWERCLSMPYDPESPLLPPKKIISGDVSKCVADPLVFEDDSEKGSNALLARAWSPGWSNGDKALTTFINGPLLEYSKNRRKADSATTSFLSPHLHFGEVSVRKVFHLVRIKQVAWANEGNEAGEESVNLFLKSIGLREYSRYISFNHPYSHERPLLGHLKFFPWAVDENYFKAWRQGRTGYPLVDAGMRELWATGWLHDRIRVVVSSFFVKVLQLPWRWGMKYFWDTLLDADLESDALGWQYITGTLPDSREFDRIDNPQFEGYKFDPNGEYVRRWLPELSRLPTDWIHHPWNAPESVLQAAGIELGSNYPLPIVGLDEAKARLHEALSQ

In the case of B1, the binding result in the assay with phyB-N-GST, with phyB-C-GST and with CRY1-N-GST was “binds” each time.

B2: CRY1-C-GST (domain or fragment, Arabidopsis thaliana, UniProt Q43125 491-681, looked up)
chain: MWQLEAASRAAIENGSEEGLGDSAEVEEAPIEFPRDITMEETEPTRLNPNRRYEDQMVPSITSSLIRPEEDEESSLNLRNSVGDSRAEVPRNMVNTNQAQQRRAEPASNQVTAMIPEFNIRIVAESTEDSTAESSSSGRRERSGGIVPEWSPGYSEQFPSEENGIGGGSTTSSYLQNHHEILNWRRLSQTG
notes: cryptochrome 1 (CRY1), Arabidopsis thaliana, C-terminus, amino acids 491-681; Cloned into pGEX-4T-1; also called C-terminus of cryptochrome 1; source: E. coli BL21 (DE3) pLysS, purified (glutathione resin)
As for B2, in the assay with SINAT2-His, the binding result is on record as “binds”.
